Measured values taken from paper PMC11266516.

Target: Fc gamma receptors on mouse peritoneal macrophages (mouse (endogenous in peritoneal macrophages))
Test: flow cytometry on cells; ImageStream X imaging flow cytometry; peritoneal wash cells (2 x 10^6) in 100 uL 1% BSA PBS stained with 0.125 ug mouse IgG-DyLight 405 and anti-CD11b-FITC, 30 min, room temperature; no Fc block

- percent of CD11b+ macrophages that bound exogenous IgG: 98.6%
Substance: mouse IgG-DyLight 405 (fluorescently conjugated mouse monomeric IgG) (antibody)
